What was measured:
hSSB1 = hSSB1 (Homo sapiens, UniProt Q9BQ15 Q9BQ15:1-211); test: SPR
THOC4 (ALYREF) = THOC4 (ALYREF) (UniProt Q86V81 Q86V81:2-257); test: SPR

Sequence of hSSB1 (Q9BQ15 whole entry, one chain of several): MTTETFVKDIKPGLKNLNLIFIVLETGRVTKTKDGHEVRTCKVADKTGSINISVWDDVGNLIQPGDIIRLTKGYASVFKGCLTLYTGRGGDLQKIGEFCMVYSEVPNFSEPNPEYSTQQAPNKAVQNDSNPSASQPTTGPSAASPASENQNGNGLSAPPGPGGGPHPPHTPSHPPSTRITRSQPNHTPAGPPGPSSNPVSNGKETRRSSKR

UCUCCCAGCAUGUGCCAU (ssRNA, 2'-OMe all, full PS) [DKLS832163 (SEQ 11)]
binding signal (hSSB1): 0.31 normalized Rmax
binding signal (THOC4 (ALYREF)): 0.33 normalized Rmax

GCCGGACUUGCCU (ssRNA, 2'-OMe all, full PS) [In3E3 5' truncation 13 nt]
binding signal (hSSB1): 0.22 normalized Rmax
binding signal (THOC4 (ALYREF)): 0.01 normalized Rmax

CGGACUUGCCU (ssRNA, 2'-OMe all, full PS) [In3E3 5' truncation 11 nt]
binding signal (hSSB1): 0.09 normalized Rmax
binding signal (THOC4 (ALYREF)): 0.01 normalized Rmax

GUCUCCGUCGUCAUGCUGCC (ssRNA, 2'-OMe all, full PS) [ASO_ATG (DKLS421748)]
binding signal (hSSB1): 0.64 normalized Rmax
binding signal (THOC4 (ALYREF)): 0.33 normalized Rmax

CAGAGGCAGCAGUACGACG (ssRNA, 2'-OMe all, full PS) [LSA_ATG 3' truncation 19 nt]
binding signal (hSSB1): 0.78 normalized Rmax
binding signal (THOC4 (ALYREF)): 0.92 normalized Rmax

CAGAGGCAGCAGUACGAC (ssRNA, 2'-OMe all, full PS) [LSA_ATG 3' truncation 18 nt]
binding signal (hSSB1): 0.64 normalized Rmax
binding signal (THOC4 (ALYREF)): 0.71 normalized Rmax

CAGAGGCAGCAGUACGA (ssRNA, 2'-OMe all, full PS) [LSA_ATG 3' truncation 17 nt]
binding signal (hSSB1): 1.19 normalized Rmax
binding signal (THOC4 (ALYREF)): 1.46 normalized Rmax

CAGAGGCAGCAGUACG (ssRNA, 2'-OMe all, full PS) [LSA_ATG 3' truncation 16 nt]
binding signal (hSSB1): 0.46 normalized Rmax
binding signal (THOC4 (ALYREF)): 0.53 normalized Rmax

AGAGGCAGCAGUACGACGG (ssRNA, 2'-OMe all, full PS) [LSA_ATG 5' truncation 19 nt]
binding signal (hSSB1): 1.02 normalized Rmax
binding signal (THOC4 (ALYREF)): 1.1 normalized Rmax

GGUCGUAAUACUUUCACUUA (ssRNA, 2'-OMe all, full PS) [DKLS629224 (SEQ 12)]
binding signal (hSSB1): 0.97 normalized Rmax
binding signal (THOC4 (ALYREF)): 0.47 normalized Rmax

GAGGCAGCAGUACGACGG (ssRNA, 2'-OMe all, full PS) [LSA_ATG 5' truncation 18 nt]
binding signal (hSSB1): 0.77 normalized Rmax
binding signal (THOC4 (ALYREF)): 1.06 normalized Rmax

AGGCAGCAGUACGACGG (ssRNA, 2'-OMe all, full PS) [LSA_ATG 5' truncation 17 nt]
binding signal (hSSB1): 0.68 normalized Rmax
binding signal (THOC4 (ALYREF)): 0.8 normalized Rmax

GGCAGCAGUACGACGG (ssRNA, 2'-OMe all, full PS) [LSA_ATG 5' truncation 16 nt]
binding signal (hSSB1): 0.64 normalized Rmax
binding signal (THOC4 (ALYREF)): 0.49 normalized Rmax

GCAGCAGUACGACGG (ssRNA, 2'-OMe all, full PS) [LSA_ATG 5' truncation 15 nt]
binding signal (hSSB1): 0.46 normalized Rmax
binding signal (THOC4 (ALYREF)): 0.31 normalized Rmax

AGAGGCAGCAGUACGACG (ssRNA, 2'-OMe all, full PS) [LSA_ATG both-end truncation 18 nt]
binding signal (hSSB1): 0.96 normalized Rmax
binding signal (THOC4 (ALYREF)): 0.81 normalized Rmax

GAGGCAGCAGUACGAC (ssRNA, 2'-OMe all, full PS) [LSA_ATG both-end truncation 16 nt]
binding signal (hSSB1): 0.67 normalized Rmax
binding signal (THOC4 (ALYREF)): 0.44 normalized Rmax

AGGCAGCAGUACGA (ssRNA, 2'-OMe all, full PS) [LSA_ATG both-end truncation 14 nt]
binding signal (hSSB1): 1.05 normalized Rmax
binding signal (THOC4 (ALYREF)): 1.02 normalized Rmax

GUGCAUGGAAUCACGGAGU (ssRNA, 2'-OMe all, full PS) [Open_A 3' truncation 19 nt]
binding signal (hSSB1): 1.24 normalized Rmax
binding signal (THOC4 (ALYREF)): 0.47 normalized Rmax

GUGCAUGGAAUCACGGAG (ssRNA, 2'-OMe all, full PS) [Open_A 3' truncation 18 nt]
binding signal (hSSB1): 1.03 normalized Rmax
binding signal (THOC4 (ALYREF)): 0.39 normalized Rmax

GUGCAUGGAAUCACGGA (ssRNA, 2'-OMe all, full PS) [Open_A 3' truncation 17 nt]
binding signal (hSSB1): 2.06 normalized Rmax
binding signal (THOC4 (ALYREF)): 1 normalized Rmax

UCAAGGAAGAUGGCAUUUCU (ssRNA, 2'-OMe all, full PS) [DKLS687764 (SEQ 14)]
binding signal (hSSB1): 1.12 normalized Rmax
binding signal (THOC4 (ALYREF)): 0.55 normalized Rmax

GUGCAUGGAAUCACGG (ssRNA, 2'-OMe all, full PS) [Open_A 3' truncation 16 nt]
binding signal (hSSB1): 0.66 normalized Rmax
binding signal (THOC4 (ALYREF)): 0.29 normalized Rmax

CUGCCUAAGUAAAAAGUGUAAAC (ssRNA, 2'-OMe all, full PS) [DKLS687118 (SEQ 15)]
binding signal (hSSB1): 1.21 normalized Rmax
binding signal (THOC4 (ALYREF)): 0.51 normalized Rmax

CCAUCUGUAAUUACAAAAUUAAA (ssRNA, 2'-OMe all, full PS) [DKLS765774 (SEQ 16)]
binding signal (hSSB1): 1.93 normalized Rmax
binding signal (THOC4 (ALYREF)): 0.97 normalized Rmax

UACCGCGUGCGACCCUCU (ssRNA, full PS) [DKLS371273 (SEQ 7)]
binding signal (hSSB1): 1.05 normalized Rmax
binding signal (THOC4 (ALYREF)): 0.81 normalized Rmax

GAGUAAACAUUCUGUGUGGAGUC (ssRNA, 2'-OMe all, full PS) [DKLS965031 (SEQ 17)]
binding signal (hSSB1): 1.35 normalized Rmax
binding signal (THOC4 (ALYREF)): 0.64 normalized Rmax

CAGCAGCAGAGUCUUCAUCAU (ssRNA, 2'-OMe all, full PS) [DKLS354527 (SEQ 21)]
binding signal (hSSB1): 0.91 normalized Rmax
binding signal (THOC4 (ALYREF)): 0.37 normalized Rmax

UGUGCUAUUCUGUGAAUU (ssRNA, 2'-OMe all, full PS) [DKLS484655 (SEQ 22)]
binding signal (hSSB1): 0.43 normalized Rmax
binding signal (THOC4 (ALYREF)): 0.22 normalized Rmax

UAAGCUGUUCUAUGUGUU (ssRNA, 2'-OMe all, full PS) [DKLS463500 (SEQ 23)]
binding signal (hSSB1): 0.74 normalized Rmax
binding signal (THOC4 (ALYREF)): 0.32 normalized Rmax

UCUUAUGUUUCCGAACCGUU (ssRNA, 2'-OMe all, full PS) [DKLS370480 (SEQ 25)]
binding signal (hSSB1): 0.69 normalized Rmax
binding signal (THOC4 (ALYREF)): 0.34 normalized Rmax

UGCUAUCUUAUCACCUUUAG (ssRNA, 2'-OMe all, full PS) [DKLS331584 (SEQ 26)]
binding signal (hSSB1): 0.48 normalized Rmax
binding signal (THOC4 (ALYREF)): 0.15 normalized Rmax

UCUCCCAGCAUGUGCCAU (ssRNA, full PS) [DKLS658030 (SEQ 8)]
binding signal (hSSB1): 0.51 normalized Rmax
binding signal (THOC4 (ALYREF)): 0.52 normalized Rmax

GGCGAAUGAGACUUCUCUUA (ssRNA, 2'-OMe all, full PS) [DKLS693540 (SEQ 27)]
binding signal (hSSB1): 1.64 normalized Rmax
binding signal (THOC4 (ALYREF)): 0.89 normalized Rmax

UCCUGGAUCCUUCACCAAUG (ssRNA, 2'-OMe all, full PS) [DKLS687192 (SEQ 28)]
binding signal (hSSB1): 1.08 normalized Rmax
binding signal (THOC4 (ALYREF)): 0.76 normalized Rmax

UGUCAUAUUCCUGGAUCCUU (ssRNA, 2'-OMe all, full PS) [DKLS684387 (SEQ 29)]
binding signal (hSSB1): 1.38 normalized Rmax
binding signal (THOC4 (ALYREF)): 0.87 normalized Rmax

GGGACGCGGCGCUCGGUCAU (ssRNA, 2'-OMe all, full PS) [DKLS951212 (SEQ 30)]
binding signal (hSSB1): 2.13 normalized Rmax
binding signal (THOC4 (ALYREF)): 1.35 normalized Rmax

CAGCAGCAGAGUAUUUAUCAU (ssRNA, 2'-OMe all, full PS) [DKLS481254 (SEQ 31)]
binding signal (hSSB1): 1.1 normalized Rmax
binding signal (THOC4 (ALYREF)): 0.46 normalized Rmax

GCUCCAGCAUCUGCUGCUUC (ssRNA, 2'-OMe all, full PS) [DKLS491049 (SEQ 32)]
binding signal (hSSB1): 0.65 normalized Rmax
binding signal (THOC4 (ALYREF)): 0.26 normalized Rmax

ACAUCGUUACCAGACAGUGUUA (ssRNA, 2'-OMe all, full PS) [DKLS687764 (SEQ 34)]
binding signal (hSSB1): 1.47 normalized Rmax
binding signal (THOC4 (ALYREF)): 0.75 normalized Rmax

ACAUGGUUCCCCGACAGUGUUA (ssRNA, 2'-OMe all, full PS) [DKLS687118 (SEQ 35)]
binding signal (hSSB1): 1.7 normalized Rmax
binding signal (THOC4 (ALYREF)): 0.72 normalized Rmax

UCUCCCAGCGUGCGCCAU (ssRNA, 2'-OMe all, full PS) [DKLS696616 (SEQ 9)]
binding signal (hSSB1): 0.79 normalized Rmax
binding signal (THOC4 (ALYREF)): 1.12 normalized Rmax

CAGAGGCAGCAGUACGACGG (ssRNA, 2'-OMe all, ZEN at both ends) [LSA_ATG ZEN (DKLS649218)]
binding signal (hSSB1): 0.15 normalized Rmax

CACGUACCUUAGUGCCUCAC (ssRNA, 2'-OMe all, ZEN at both ends) [Open_L ZEN (DKLS665920)]
binding signal (THOC4 (ALYREF)): -0.15 normalized Rmax

UUGACAGAUUAAGUCCAUUC (ssRNA, 2'-OMe all, full PS) [DKLS675388 (SEQ 51)]
binding signal (hSSB1): 0.89 normalized Rmax
binding signal (THOC4 (ALYREF)): 0.15 normalized Rmax

GCCACCCGUCGGUUGCUAGA (ssRNA, 2'-OMe all, full PS) [DKLS659460 (SEQ 52)]
binding signal (hSSB1): 1.65 normalized Rmax
binding signal (THOC4 (ALYREF)): 0.89 normalized Rmax

GCGGGUCCUCUACGCACUGA (ssRNA, 2'-OMe all, full PS) [DKLS649547 (SEQ 53)]
binding signal (hSSB1): 1.55 normalized Rmax
binding signal (THOC4 (ALYREF)): 0.85 normalized Rmax

GCCCGUCUGGCGCAUAGCUA (ssRNA, 2'-OMe all, full PS) [DKLS646683 (SEQ 54)]
binding signal (hSSB1): 0.98 normalized Rmax
binding signal (THOC4 (ALYREF)): 0.85 normalized Rmax

GGGCCUCCCGCACUUGAGAU (ssRNA, 2'-OMe all, full PS) [DKLS679059 (SEQ 55)]
binding signal (hSSB1): 0.85 normalized Rmax
binding signal (THOC4 (ALYREF)): 0.37 normalized Rmax

GGCACGUCCGCCAGUCAUGU (ssRNA, 2'-OMe all, full PS) [DKLS656105 (SEQ 56)]
binding signal (hSSB1): 0.73 normalized Rmax
binding signal (THOC4 (ALYREF)): 0.23 normalized Rmax

CCUCUCUGCCGCUCUUGCCU (ssRNA, 2'-OMe all, full PS) [DKLS420640 (SEQ 57)]
binding signal (hSSB1): 0.48 normalized Rmax
binding signal (THOC4 (ALYREF)): 0.03 normalized Rmax

UACCGCGUGCGACCCUCU (ssRNA, 2'-OMe all, full PS) [DKLS784557 (SEQ 10)]
binding signal (hSSB1): 0.69 normalized Rmax
binding signal (THOC4 (ALYREF)): 0.49 normalized Rmax

CCUGUGUGCCCCUCUUCCCU (ssRNA, 2'-OMe all, full PS) [DKLS374580 (SEQ 58)]
binding signal (hSSB1): 0.68 normalized Rmax
binding signal (THOC4 (ALYREF)): 0.12 normalized Rmax

CCUGUCAGCCGCACUUGCCU (ssRNA, 2'-OMe all, full PS) [DKLS463357 (SEQ 59)]
binding signal (hSSB1): 0.95 normalized Rmax
binding signal (THOC4 (ALYREF)): 0.39 normalized Rmax

CCACUGAGCCCGACUUCCCU (ssRNA, 2'-OMe all, full PS) [DKLS459520 (SEQ 60)]
binding signal (hSSB1): 0.63 normalized Rmax
binding signal (THOC4 (ALYREF)): 0.03 normalized Rmax

CCAGUAAGCCAGACUUGCAU (ssRNA, 2'-OMe all, full PS) [DKLS399970 (SEQ 61)]
binding signal (hSSB1): 0.64 normalized Rmax
binding signal (THOC4 (ALYREF)): 0.3 normalized Rmax

CCAGUGAGCCGAACUUCUCU (ssRNA, 2'-OMe all, full PS) [DKLS459014 (SEQ 62)]
binding signal (hSSB1): 0.55 normalized Rmax
binding signal (THOC4 (ALYREF)): 0.26 normalized Rmax

CUAGUAAGUCGGACUUGCCU (ssRNA, 2'-OMe all, full PS) [DKLS447399 (SEQ 63)]
binding signal (hSSB1): 1.22 normalized Rmax
binding signal (THOC4 (ALYREF)): 1.22 normalized Rmax

CCAGGGAGCCGGACUUGGCG (ssRNA, 2'-OMe all, full PS) [DKLS712428 (SEQ 64)]
binding signal (hSSB1): 0.7 normalized Rmax
binding signal (THOC4 (ALYREF)): 0.51 normalized Rmax
